In patent US20160355590A1 (UNIVERSITY OF SOUTHERN CALIFORNIA, published 2016):
Values belong to the binder of their own block, whether it stands above or below them.

Assays:
[1] = molecular target: human HLA-DR (allele not stated), on cells (human); test: Scatchard plot analysis, avidity constant on tonsil lymphocytes
[2] = molecular target: human HLA-DR (allele not stated), on cells (human); test: Scatchard plot analysis, normal B cells against tumor cell line
[3] = molecular target: human HLA-DR (allele not stated), on cells (human); test: Scatchard plot analysis, avidity constant on ARH-77 myeloma cells

Ka [1]: 8.8e+07 M⁻¹
fold decrease in binding affinity on normal B cells against tumor cells [2]: 4 fold
B1: Lym-1 monoclonal antibody (antibody, V domains shown)
VH: QLKESGPGLVAPSQSLSITCTISGFSLTSYGVHWVRQPPGKGLEWLVVIWSDGSTTYNSALKSRLSISKDNSKSQVFLKMNSLQTDDTAIYYCASHYGSTLAFASWGHGTLVTVSA
VL: DIQMTQSPASLSASVGETVTIICRASVNIYSYLAWYQQKQGKSPQLLVYNAKILAEGVPSRFSGSGSGTQFSLKINSLQPEDFGSYYCQHHYGTFTFGSGTKLEIK
notes: Mouse (BALB/c) hybridoma monoclonal antibody raised against Raji Burkitt's lymphoma cell nuclei; detected with goat anti-mouse IgG

Ka [1]: 1.23e+08 M⁻¹
fold decrease in binding affinity on normal B cells against tumor cells [2]: 2 fold
Ka [3]: 2.33e+08 M⁻¹
B2: Lym-2 monoclonal antibody (antibody, V domains shown)
VH: EVQLEESGGGLVQPGGSMKLSCVASGFTFSNYWMNWVRQSPEKGLEWVAEIRFKSHNYATHFAESVKGRFTISRDDSKSSVYLQMNNLRAEDTGIYYCTRRIGNSDYDWWYFDVWGAGTSVTVSS
VL: DIVMTQSHKFMSTSVGDRVSVTCKASQNVGNNVAWYQQKPGQSPKVLIYSASYRYSGVPDRFTGSGSGTDFTLTISNVQSEDLAEYFCQQYNTYPFTFGSGTKLEIK
notes: Mouse (BALB/c) hybridoma monoclonal antibody raised against CLL biopsy cell nuclei; detected with goat anti-mouse IgG
